Assay results reported in patent CN111018973A.

Legend:
[1] = target: cTnI质控品重组抗原 (human) (UniProt P19429); test: indirect ELISA, cTnI coated at 1 ug/ml, antibody 0 ng/ml (blank, background), goat anti-mouse IgG-HRP
[2] = target: cTnI质控品重组抗原 (human) (UniProt P19429); test: indirect ELISA, cTnI coated at 1 ug/ml, antibody 1.6 ng/ml, goat anti-mouse IgG-HRP
[3] = target: cTnI质控品重组抗原 (human) (UniProt P19429); test: indirect ELISA, cTnI coated at 1 ug/ml, antibody 1000 ng/ml, goat anti-mouse IgG-HRP
[4] = target: cTnI质控品重组抗原 (human) (UniProt P19429); test: indirect ELISA, cTnI coated at 1 ug/ml, antibody 200 ng/ml, goat anti-mouse IgG-HRP
[5] = target: cTnI质控品重组抗原 (human) (UniProt P19429); test: indirect ELISA, cTnI coated at 1 ug/ml, antibody 8 ng/ml, goat anti-mouse IgG-HRP
[6] = target: cTnI质控品重组抗原 (human) (UniProt P19429); test: indirect ELISA, cTnI coated at 1 ug/ml, antibody 40 ng/ml, goat anti-mouse IgG-HRP
[7] = target: cTnI质控品重组抗原 (human) (UniProt P19429); test: indirect ELISA, cTnI coated at 1 ug/ml, antibody 0.32 ng/ml, goat anti-mouse IgG-HRP

Sequence of UniProt P19429 (P19429 whole entry): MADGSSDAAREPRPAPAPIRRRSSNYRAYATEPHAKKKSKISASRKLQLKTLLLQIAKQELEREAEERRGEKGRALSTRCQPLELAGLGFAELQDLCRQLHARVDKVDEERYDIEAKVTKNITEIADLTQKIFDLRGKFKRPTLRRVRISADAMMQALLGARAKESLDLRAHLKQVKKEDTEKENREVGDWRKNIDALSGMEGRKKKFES

OD值 (450 nm, 参考630 nm) [1]: 0.062 OD
OD值 (450 nm, 参考630 nm) [2]: 0.227 OD
OD值 (450 nm, 参考630 nm) [3]: 2.03 OD
OD值 (450 nm, 参考630 nm) [4]: 1.91 OD
OD值 (450 nm, 参考630 nm) [5]: 1.47 OD
OD值 (450 nm, 参考630 nm) [6]: 1.85 OD
OD值 (450 nm, 参考630 nm) [7]: 0.086 OD
B1: Anti-cTnI 8B6 重组抗体 (WT) (antibody, V domains shown)
VH: EVQLQQSGAELVKPGASVKLSCTASGFNIRDYYMHWMKQRTEQGLDWIGRIDPEEGETKYPPEFQGKATITADTSSNTAYLQLSTLTSEDTAVYYCARYYTSYIPFVYWGQGTLVTASA
VL: DVVMTQTPLSLSVSLGDQASISCRSTQSLLYSQRHTFLHWYLQKPGQSPKLLIFKISNKFSGVPDRFSGSGSGTDFTLKISRVEAEDLGVYFCSNSTHLPYTFGSGTKLEIKR
